US20220177834A1, “STABLE SYSTEM FOR THE IN VITRO CULTURE OF CEREBELLAR GRANULE CELL PRECURSORS (GCP), STABLE METHOD FOR THE IN VITRO CULTURE OF SAID CELLS AND USE OF SAID SYSTEM OR METHOD FOR IN VITRO CULTURE” (UNIVERSITA DEGLI STUDI Dl ROMA "LA SAPIENZA", priority 2019, published 2022)

Assays:
[1] = system: Shh pathway; assay: Shh pathway expression (Gli1, N-Myc; Western Blot, real time Q-PCR) in GCP neurosphere cultures; type: cell-based, mouse; conditions: factor alone, FIG. 4
Description: (§1) After surgical resection from a mouse on the seventh day of postnatal life (P7) the cerebellum was mechanically shredded in a buffer containing HBSS, glucose and antibiotics, and DNase (at concentrations as defined above) and the individual cells thus obtained were counted and plated at a dilution of 16000 cells/cm^2 on a medium composed of DMEM-F12, glucose, Vitamin A-free B27, insulin, NALC, heparin, antibiotics (at concentrations as defined above) and SAG (200 nM) and EGF ([…]). On this medium the cells can be enriched and maintained for an unlimited time, after periodical dissociation of the spheres with Accutase® (2-3 times per week) and propagation by dilution (to prevent excessive growth and consequent death from nutrient deficiency and hypoxia). The reaction conditions were as described above.

[2] = system: GCP cells; assay: Clonogenicity / long-term propagation of GCP neurosphere cultures; type: cell-based, mouse
Description: as §1

B1: EGF: Epidermal Growth Factor (protein, UniProt P01133 23-1207, looked up)
Pro-epidermal growth factor: PQHWSCPEGTLAGNGNSTCVGPAPFLIFSHGNSIFRIDTEGTNYEQLVVDAGVSVIMDFHYNEKRIYWVDLERQLLQRVFLNGSRQERVCNIEKNVSGMAINWINEEVIWSNQQEGIITVTDMKGNNSHILLSALKYPANVAVDPVERFIFWSSEVAGSLYRADLDGVGVKALLETSEKITAVSLDVLDKRLFWIQYNREGSNSLICSCDYDGGSVHISKHPTQHNLFAMSLFGDRIFYSTWKMKTIWIANKHTGKDMVRINLHSSFVPLGELKVVHPLAQPKAEDDTWEPEQKLCKLRKGNCSSTVCGQDLQSHLCMCAEGYALSRDRKYCEDVNECAFWNHGCTLGCKNTPGSYYCTCPVGFVLLPDGKRCHQLVSCPRNVSECSHDCVLTSEGPLCFCPEGSVLERDGKTCSGCSSPDNGGCSQLCVPLSPVSWECDCFPGYDLQLDEKSCAASGPQPFLLFANSQDIRHMHFDGTDYGTLLSQQMGMVYALDHDPVENKIYFAHTALKWIERANMDGSQRERLIEEGVDVPEGLAVDWIGRRFYWTDRGKSLIGRSDLNGKRSKIITKENISQPRGIAVHPMAKRLFWTDTGINPRIESSSLQGLGRLVIASSDLIWPSGITIDFLTDKLYWCDAKQSVIEMANLDGSKRRRLTQNDVGHPFAVAVFEDYVWFSDWAMPSVMRVNKRTGKDRVRLQGSMLKPSSLVVVHPLAKPGADPCLYQNGGCEHICKKRLGTAWCSCREGFMKASDGKTCLALDGHQLLAGGEVDLKNQVTPLDILSKTRVSEDNITESQHMLVAEIMVSDQDDCAPVGCSMYARCISEGEDATCQCLKGFAGDGKLCSDIDECEMGVPVCPPASSKCINTEGGYVCRCSEGYQGDGIHCLDIDECQLGEHSCGENASCTNTEGGYTCMCAGRLSEPGLICPDSTPPPHLREDDHHYSVRNSDSECPLSHDGYCLHDGVCMYIEALDKYACNCVVGYIGERCQYRDLKWWELRHAGHGQQQKVIVVAVCVVVLVMLLLLSLWGAHYYRTQKLLSKNPKNPYEESSRDVRSRRPADTEDGMSSCPQPWFVVIKEHQDLKNGGQPVAGEDGQAADGSMQPTSWRQEPQLCGMGTEQGCWIPVSSDKGSCPQVMERSFHMPSYGTQTLEGGVEKPHSLLSANPLWQQRALDPPHQMELTQ
modifications: Pro-epidermal growth factor
expression of markers typical of GCP [1]: does not express the markers typical of GCP | proliferative power of GCP cells [2]: ensures its unlimited proliferative power
